Columns and labels:
HeLa Kyoto [1] = assay: thermal stability score vs G1/S (z-score of summed log2 fold changes over temperatures); higher = more thermally stable than in G1/S
HeLa Kyoto [2] = assay: solubility in G1/S (NP-40 vs SDS abundance) (log2 ratio); higher = more soluble; settings: cell cycle stage: G1/S
HeLa Kyoto [3] = assay: solubility change mitosis vs G1/S (difference of NP-40 vs SDS log2 ratios) (log2 ratio difference); higher = more soluble in mitosis
[4] = cell cycle stage: early G1 (4.5 h after nocodazole release)
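Throughout, for solubility change mitosis vs G1/S (difference of NP-40 vs SDS log2 ratios): synchronized HeLa Kyoto cells (double thymidine block for G1/S, nocodazole release for mitosis), protein amounts in NP-40 versus SDS lysates quantified by mass spectrometry, three biological replicates.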
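Throughout, for solubility in G1/S (NP-40 vs SDS abundance): HeLa Kyoto cells arrested at G1/S by double thymidine block, proteins quantified by TMT10plex mass spectrometry in mild NP-40 versus SDS extracts, three biological replicates.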
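Throughout, for thermal stability score vs G1/S (z-score of summed log2 fold changes over temperatures): synchronized HeLa Kyoto cells, proteins quantified by TMT10plex mass spectrometry, three biological replicates, mitosis taken 0.5 h after nocodazole release, G1/S directly after double thymidine block.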

MSQGSPGDWAPLDPTPGPPASPNPFVHELHLSRLQRVKFCLLGALLAPIRVLLAFIVLFLLWPFAWLQVAGLSEEQLQEPITGWRKTVCHNGVLGLSRLLFFLLGFLRIRVRGQRASRLQAPVLVAAPHSTFFDPIVLLPCDLPKVVSRAENLSVPVIGALLRFNQAILVSRHDPASRRRVVEEVRRRATSGGKWPQVLFFPEGTCSNKKALLKFKPGAFIAGVPVQPVLIRYPNSLDTTSWAWRGPGVLKVLWLTASQPCSIVDVEFLPVYHPSPEESRDPTLYANNVQRVMAQALGIPATECEFVGSLPVIVVGRLKVALEPQLWELGKVLRKAGLSAGYVDAGAEPGRSRMISQEEFARQLQLSDPQTVAGAFGYFQQDTKGLVDFRDVALALAALDGGRSLEELTRLAFELFAEEQAEGPNRLLYKDGFSTILHLLLGSPHPAATALHAELCQAGSSQGLSLCQFQNFSLHDPLYGKLFSTYLRPPHTSRGTSQTPNASSPGNPTALANGTVQAPKQKGD [LPCAT4]
thermal stability score (HeLa Kyoto [1]; [4]): 0.358
thermal stability score (HeLa Kyoto [1]; cell cycle stage: mitosis): 0.234
solubility in G1/S (log2) (HeLa Kyoto [2]): -0.0461
solubility change mitosis (log2) (HeLa Kyoto [3]): -0.122

MQSKVTGNMPTQSLLMYMDGPEVIGSSLGSPMEMEDALSMKGTAVVPFRATQEKNVIQIEGYMPLDCMFCSQTFTHSEDLNKHVLMQHRPTLCEPAVLRVEAEYLSPLDKSQVRTEPPKEKNCKENEFSCEVCGQTFRVAFDVEIHMRTHKDSFTYGCNMCGRRFKEPWFLKNHMRTHNGKSGARSKLQQGLESSPATINEVVQVHAAESISSPYKICMVCGFLFPNKESLIEHRKVHTKKTAFGTSSAQTDSPQGGMPSSREDFLQLFNLRPKSHPETGKKPVRCIPQLDPFTTFQAWQLATKGKVAICQEVKESGQEGSTDNDDSSSEKELGETNKGSCAGLSQEKEKCKHSHGEAPSVDADPKLPSSKEKPTHCSECGKAFRTYHQLVLHSRVHKKDRRAGAESPTMSVDGRQPGTCSPDLAAPLDENGAVDRGEGGSEDGSEDGLPEGIHLDKNDDGGKIKHLTSSRECSYCGKFFRSNYYLNIHLRTHTGEKPYKCEFCEYAAAQKTSLRYHLERHHKEKQTDVAAEVKNDGKNQDTEDALLTADSAQTKNLKRFFDGAKDVTGSPPAKQLKEMPSVFQNVLGSAVLSPAHKDTQDFHKNAADDSADKVNKNPTPAYLDLLKKRSAVETQANNLICRTKADVTPPPDGSTTHNLEVSPKEKQTETAADCRYRPSVDCHEKPLNLSVGALHNCPAISLSKSLIPSITCPFCTFKTFYPEVLMMHQRLEHKYNPDVHKNCRNKSLLRSRRTGCPPALLGKDVPPLSSFCKPKPKSAFPAQSKSLPSAKGKQSPPGPGKAPLTSGIDSSTLAPSNLKSHRPQQNVGVQGAATRQQQSEMFPKTSVSPAPDKTKRPETKLKPLPVAPSQPTLGSSNINGSIDYPAKNDSPWAPPGRDYFCNRSASNTAAEFGEPLPKRLKSSVVALDVDQPGANYRRGYDLPKYHMVRGITSLLPQDCVYPSQALPPKPRFLSSSEVDSPNVLTVQKPYGGSGPLYTCVPAGSPASSSTLEGKRPVSYQHLSNSMAQKRNYENFIGNAHYRPNDKKT [ZNF217]
thermal stability score (HeLa Kyoto [1]; [4]): -1.13
thermal stability score (HeLa Kyoto [1]; cell cycle stage: mitosis): -0.808
solubility in G1/S (log2) (HeLa Kyoto [2]): -0.201
solubility change mitosis (log2) (HeLa Kyoto [3]): 0.0502

MSDILRELLCVSEKAANIARACRQQEALFQLLIEEKKEGEKNKKFAVDFKTLADVLVQEVIKQNMENKFPGLEKNIFGEESNEFTNDWGEKITLRLCSTEEETAELLSKVLNGNKVASEALARVVHQDVAFTDPTLDSTEINVPQDILGIWVDPIDSTYQYIKGSADIKSNQGIFPCGLQCVTILIGVYDIQTGVPLMGVINQPFVSRDPNTLRWKGQCYWGLSYMGTNMHSLQLTISRRNGSETHTGNTGSEAAFSPSFSAVISTSEKETIKAALSRVCGDRIFGAAGAGYKSLCVVQGLVDIYIFSEDTTFKWDSCAAHAILRAMGGGIVDLKECLERNPETGLDLPQLVYHVENEGAAGVDRWANKGGLIAYRSRKRLETFLSLLVQNLAPAETHT [INPP1]
thermal stability score (HeLa Kyoto [1]; [4]): 0.000408
thermal stability score (HeLa Kyoto [1]; cell cycle stage: mitosis): -0.083
solubility in G1/S (log2) (HeLa Kyoto [2]): 0.0309
solubility change mitosis (log2) (HeLa Kyoto [3]): -0.114

SACS
thermal stability score (HeLa Kyoto [1]; [4]): -0.0387
thermal stability score (HeLa Kyoto [1]; cell cycle stage: mitosis): -0.338
solubility in G1/S (log2) (HeLa Kyoto [2]): -0.294
solubility change mitosis (log2) (HeLa Kyoto [3]): -0.045

MALAVLRVLEPFPTETPPLAVLLPPGGPWPAAELGLVLALRPAGESPAGPALLVAALEGPDAGTEEQGPGPPQLLVSRALLRLLALGSGAWVRARAVRRPPALGWALLGTSLGPGLGPRVGPLLVRRGETLPVPGPRVLETRPALQGLLGPGTRLAVTELRGRARLCPESGDSSRPPPPPVVSSFAVSGTVRRLQGVLGGTGDSLGVSRSCLRGLGLFQGEWVWVAQARESSNTSQPHLARVQVLEPRWDLSDRLGPGSGPLGEPLADGLALVPATLAFNLGCDPLEMGELRIQRYLEGSIAPEDKGSCSLLPGPPFARELHIEIVSSPHYSTNGNYDGVLYRHFQIPRVVQEGDVLCVPTIGQVEILEGSPEKLPRWREMFFKVKKTVGEAPDGPASAYLADTTHTSLYMVGSTLSPVPWLPSEESTLWSSLSPPGLEALVSELCAVLKPRLQPGGALLTGTSSVLLRGPPGCGKTTVVAAACSHLGLHLLKVPCSSLCAESSGAVETKLQAIFSRARRCRPAVLLLTAVDLLGRDRDGLGEDARVMAVLRHLLLNEDPLNSCPPLMVVATTSRAQDLPADVQTAFPHELEVPALSEGQRLSILRALTAHLPLGQEVNLAQLARRCAGFVVGDLYALLTHSSRAACTRIKNSGLAGGLTEEDEGELCAAGFPLLAEDFGQALEQLQTAHSQAVGAPKIPSVSWHDVGGLQEVKKEILETIQLPLEHPELLSLGLRRSGLLLHGPPGTGKTLLAKAVATECSLTFLSVKGPELINMYVGQSEENVREVFARARAAAPCIIFFDELDSLAPSRGRSGDSGGVMDRVVSQLLAELDGLHSTQDVFVIGATNRPDLLDPALLRPGRFDKLVFVGANEDRASQLRVLSAITRKFKLEPSVSLVNVLDCCPPQLTGADLYSLCSDAMTAALKRRVHDLEEGLEPGSSALMLTMEDLLQAAARLQPSVSEQELLRYKRIQRKFAAC [PEX6]
thermal stability score (HeLa Kyoto [1]; [4]): -0.844
thermal stability score (HeLa Kyoto [1]; cell cycle stage: mitosis): -0.711
solubility in G1/S (log2) (HeLa Kyoto [2]): 0.167
solubility change mitosis (log2) (HeLa Kyoto [3]): -0.158

NHS
thermal stability score (HeLa Kyoto [1]; [4]): 0.656
thermal stability score (HeLa Kyoto [1]; cell cycle stage: mitosis): 0.325
solubility in G1/S (log2) (HeLa Kyoto [2]): -0.153
solubility change mitosis (log2) (HeLa Kyoto [3]): -0.00515

From the supplement of paper PMC5998384
